A word on the stoichiometry N: it is the number of molecules, sites or subunits per partner or assembly. One may read the Kd as the equilibrium constant for the complex coming apart. Low values mean a tighter complex, high ones a looser complex.

Here are results for two substances from publication doi:10.1101/2022.03.01.482405.

Assay [1] addresses Photosystem I protomer from Thermosynechococcus elongatus BP-1 (His10-tag on PsaF) (Thermosynechococcus elongatus BP-1) (UniProt P0A405). Nature of the assay: cryo-EM structure.
Assay [2] deals with Photosystem I trimer from Thermosynechococcus elongatus BP-1 (His10-tag on PsaF) (Thermosynechococcus elongatus BP-1) (UniProt P0A405). Description: ITC.

In turn, “Photosystem I protomer from Thermosynechococcus elongatus BP-1 (His10-tag on PsaF) (from UniProt P0A405;P0A407;P0A415;P0A420;P0A423;P0A401;P0A427;P0A429;P0A425;Q8DGB4;P0A403) (complex)” showed a stoichiometry N in assay [1] of 3.

“gallium-substituted ferredoxin from Thermosynechococcus elongatus BP-1 (from UniProt P0A3C9) (natural protein)” returned an equilibrium dissociation constant (Kd) in assay [2] of 800 µM.
